± gives the uncertainty stated by the source.
Assay: protein stability index of a GFP-peptide fusion (yeast GPS) (PSI 1-4); higher = more stable; sorted into four equal gates, so the index is relative within each strain
In short: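 Peptides tiling yeast proteins in 17-residue segments were fused downstream of GFP, with Cherry expressed from the same plasmid. As a pooled library in yeast, mid-log cultures grown in leucine-free medium were sorted into four equal gates by GFP/Cherry fluorescence ratio. Gate plasmids were PCR-amplified and Illumina-sequenced, and barcodes linked reads to strains. Each peptide received a protein stability index equal to the sum of each gate's read frequency times its gate number.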

Sequence	protein stability index (doa10∆)	protein stability index (pdr5∆)	protein stability index (san1∆)	protein stability index (ubr1∆)
HLKILASSNFPFLNETK [RPC82]	2.52 ± 0.055	2.61 ± 0.064	2.51 ± 0.06	2.62 ± 0.045
KLHFKDTKPFLNKDSTN [NUT1]	2.51 ± 0.098	2.23 ± 0.073	1.99 ± 0.071	2.6 ± 0.041
QAMGVFLTNYNVRMDTM [RPB2]	3.54 ± 0.19	3.14 ± 0.16	3.63 ± 0.11	3.5 ± 0.14
YRRLFAKRLIHGTSTSA [CDC53]	1.44 ± 0.11	1.36 ± 0.11	–	–
TRHQNTIHAKRKIVFRC [RPN4]	2.75 ± 0.052	2.85 ± 0.059	2.8 ± 0.07	2.64 ± 0.052
EFDRRILKKSLMTSHTK [RTT102]	2.94 ± 0.17	2.98 ± 0.092	2.4 ± 0.15	3.29 ± 0.093
SKLSLSRTDAVRCKDCG [RPC10]	1.77 ± 0.076	1.9 ± 0.064	1.85 ± 0.13	1.9 ± 0.076
GRYMEALALYVDAYRRL [SRP68]	1.84 ± 0.074	1.91 ± 0.11	1.85 ± 0.15	1.79 ± 0.077
KPIYKDTRFGGRMDMTR [SSN2]	3.1 ± 0.17	3.36 ± 0.14	3.33 ± 0.068	3.4 ± 0.14
QKLWLLECQLFPQGLNI [SSN8]	2.16 ± 0.068	1.92 ± 0.06	1.66 ± 0.13	2.11 ± 0.076
PEIGNRKINLFYLYMLV [SWI1]	1.54 ± 0.1	1.32 ± 0.054	1.1 ± 0.22	2.22 ± 0.094
AEDDVIIPQDILDCVVT [YJR042W/NUP85]	3.18 ± 0.1	3.04 ± 0.065	3.36 ± 0.04	2.94 ± 0.07
SMTAVPKPLKFLRPTYP [RPN1]	2.33 ± 0.058	2.21 ± 0.064	1.85 ± 0.069	2.47 ± 0.064
ISKSLTFSQESGLMVIL [RRI2]	2.23 ± 0.095	2.33 ± 0.11	2.29 ± 0.094	2.27 ± 0.072
TAVAFWSWDIAVDNCAI [HRT1]	1.33 ± 0.07	1.49 ± 0.067	1.52 ± 0.12	1.55 ± 0.043
SNSNNNGNKDSSFNFNK [SWI1]	3.04 ± 0.053	3.17 ± 0.043	3.13 ± 0.04	3.16 ± 0.04
QEESFSLNLGIGIVEIA [SRB8]	1.33 ± 0.11	1.79 ± 0.088	2.08 ± 0.29	1.89 ± 0.094
HWMGSSVSGSPRPSYSS [YMR129W/POM152]	2.98 ± 0.088	3.11 ± 0.089	2.74 ± 0.07	2.87 ± 0.084
HADKDTFSSSISTYIST [POP8]	2.61 ± 0.045	2.58 ± 0.037	2.41 ± 0.048	2.69 ± 0.046
RFTKFSDTLKEFKIEQN [YDL116W/NUP84]	1.74 ± 0.076	1.74 ± 0.081	1.42 ± 0.18	1.45 ± 0.058
RSWNEPSKSQTNFKEEI [YML103C/NUP188]	2.9 ± 0.12	2.98 ± 0.13	3.17 ± 0.12	3.11 ± 0.075
IHNYDSKKSTITVRYWL [RGR1]	3 ± 0.087	2.88 ± 0.081	2.69 ± 0.067	3.09 ± 0.049
AAGALFVSSGFDTSIKL [RPN14]	2.41 ± 0.052	2.52 ± 0.045	2.18 ± 0.064	2.49 ± 0.035
QDISSSTRVEFEKLYSD [FAS2]	–	3.05 ± 0.24	3.27 ± 0.14	–
SGELLQGIVRVYSKQAT [MCD1]	1.82 ± 0.047	2.17 ± 0.056	2.22 ± 0.058	1.76 ± 0.049
RAQRVAEKRDALLKEDA [RPL19A]	3.2 ± 0.17	3.04 ± 0.13	2.89 ± 0.14	3.47 ± 0.091

Sequence	protein stability index (doa10∆)	protein stability index (pdr5∆)	protein stability index (san1∆)	protein stability index (ubr1∆)
NGKLTSANERLFGNRPS [YML031W/NDC1]	2.72 ± 0.11	3.03 ± 0.076	2.69 ± 0.094	2.94 ± 0.066
IRLANESSELNKDSIEE [CSN12]	3.22 ± 0.084	3.43 ± 0.079	3.34 ± 0.065	3.37 ± 0.083
GIFNLLNTLFNPVTLNE [NUT1]	2.52 ± 0.051	1.93 ± 0.052	1.87 ± 0.075	1.92 ± 0.048
NSMDISMFSGLDSTGFD [MED2]	2.83 ± 0.059	3.06 ± 0.055	3.21 ± 0.041	2.83 ± 0.049
SMILGVAASIIPFPDHN [RPB2]	2.21 ± 0.12	2.41 ± 0.12	2.27 ± 0.21	2.8 ± 0.094
IPLGKNVVVKWQGKPVF [RIP1]	3.36 ± 0.26	–	3.42 ± 0.07	2.96 ± 0.26
APPQTRKFQPPPGFKRK [SMB1]	3.18 ± 0.088	3.19 ± 0.1	3.17 ± 0.084	3.28 ± 0.063
KNIQSKDSYINANTIET [FAS2]	2.9 ± 0.05	2.88 ± 0.043	2.9 ± 0.038	2.94 ± 0.052
GLKYALATGNWGEQKKA [RPB2]	2.58 ± 0.097	2.85 ± 0.075	3.01 ± 0.082	2.8 ± 0.063
DQYIQKQVQISHHLKAD [YGL172W/NUP49]	2.78 ± 0.076	2.71 ± 0.092	2.6 ± 0.072	3.07 ± 0.057
ILARNDEEMAVLTRMDE [SNF2]	3.04 ± 0.071	2.87 ± 0.079	2.37 ± 0.084	3.15 ± 0.047
ISKKIIGMSLLMRTFLY [SIR3]	1.79 ± 0.081	2.31 ± 0.065	1.99 ± 0.083	1.75 ± 0.077
EEQEKINSAPDFTQEDE [ISW2]	3.14 ± 0.11	3.56 ± 0.088	3.39 ± 0.081	3.55 ± 0.067
LQEKNSGNLPLNELSAK [RPN13]	3.19 ± 0.072	3.2 ± 0.065	3.08 ± 0.038	3.17 ± 0.063
EKTYTKAPKIQRLVTPQ [RPS6A]	2.62 ± 0.056	2.43 ± 0.055	2.11 ± 0.064	2.22 ± 0.037
TCILHGPVAAQFTKVID [FAS1]	1.73 ± 0.064	2.25 ± 0.048	1.94 ± 0.081	1.98 ± 0.047
FIDHHAAIRQPTRYVLI [POP1]	1.72 ± 0.066	2.08 ± 0.073	1.77 ± 0.098	1.4 ± 0.047
LHQYYGDDESKIPAVEY [FAS1]	–	2.75 ± 0.21	2.96 ± 0.19	–
QKLPQYIIQGSNTNDNI [RGR1]	3.14 ± 0.1	3.09 ± 0.098	2.48 ± 0.18	3.25 ± 0.091
KITDKEDLLHYIEEKHP [POP4]	3.48 ± 0.1	3.3 ± 0.064	3.23 ± 0.057	3.24 ± 0.076
ILNSHFDALRSLDDNST [YJL041W/NSP1]	2.36 ± 0.054	2.07 ± 0.046	2.53 ± 0.064	2.55 ± 0.036
TKFSKLIGRPPLLVPGM [FAS1]	1.16 ± 0.071	2 ± 0.064	1.91 ± 0.078	1.65 ± 0.041
HEVEEILNELQPNARAL [SMC1]	3.09 ± 0.13	3.4 ± 0.12	3.1 ± 0.099	3.44 ± 0.069
IKVLLRQNRRPELGDKF [RET1]	3.15 ± 0.25	3.49 ± 0.18	3.36 ± 0.09	3.41 ± 0.092
ATEVTPQEPKHIQEEEE [RPC19]	3.24 ± 0.081	3.23 ± 0.09	3.14 ± 0.056	3.37 ± 0.079
PFVLAENMWPFSYQEVE [CDC53]	1.6 ± 0.037	1.9 ± 0.04	1.56 ± 0.051	2.25 ± 0.028

From the supplement of paper PMC9732359
